Reference: patent publication US20250011363A1, “OPTIMIZED SHORTENED PEPTIDE THAT BINDS TO ACETYLCHOLINE RECEPTOR, AND USE THEREOF” (SKINMED CO., LTD., priority 2021, published 2025)

Molecular target: acetylcholine receptor
Assay: SPR, AchR immobilised on CM5 chip, peptide 10 uM

With RRKSHK [6mer-1-978] as the binder, how does the Binding affinity (RU) read?
Its Binding affinity (RU) is 43 RU.

For RKPAHK [6mer-1-974], which Binding affinity (RU) is on record?
Its Binding affinity (RU) is 27 RU.

How did the Binding affinity (RU) turn out when RKICAK [6mer-1-980] was run?
The Binding affinity (RU) was 33 RU.

With KKIWFR [6mer-1-959] as the binder, how does the Binding affinity (RU) read?
The Binding affinity (RU) was 36 RU.

Which Binding affinity (RU) does the source give for RREEDK [6mer-1-963] here?
The Binding affinity (RU) was 29 RU.

With KRHDKK [6mer-1-952] as the binder, how does the Binding affinity (RU) read?
Its Binding affinity (RU) is 28 RU.

RKDDKK [6mer-1-981] was tested. Which Binding affinity (RU) did it give?
The Binding affinity (RU) was 27 RU.

For KRYAGR [6mer-1-958], which Binding affinity (RU) is on record?
The Binding affinity (RU) was 43 RU.

With RRPCFR [6mer-1-977] as the binder, how does the Binding affinity (RU) read?
The Binding affinity (RU) was 43 RU.

For KKNCDK [6mer-1-962], which Binding affinity (RU) is on record?
Its Binding affinity (RU) is 42 RU.

RKDHWR [6mer-1-969] was tested. Which Binding affinity (RU) did it give?
Its Binding affinity (RU) is 33 RU.

Which Binding affinity (RU) does the source give for KKPPDK [6mer-1-957] here?
The Binding affinity (RU) was 43 RU.

With RKFKNK [6mer-1-964] as the binder, how does the Binding affinity (RU) read?
The Binding affinity (RU) was 42 RU.

With KRIWDK [6mer-1-965] as the binder, how does the Binding affinity (RU) read?
Its Binding affinity (RU) is 36 RU.

For RRTEDR [6mer-1-967], which Binding affinity (RU) is on record?
The Binding affinity (RU) was 24 RU.

Which Binding affinity (RU) does the source give for RRYWEK [6mer-1-979] here?
The Binding affinity (RU) was 42 RU.

With RRNSWK [6mer-1-966] as the binder, how does the Binding affinity (RU) read?
Its Binding affinity (RU) is 22 RU.

For RRDHVK [6mer-1-973], which Binding affinity (RU) is on record?
Its Binding affinity (RU) is 25 RU.

Which Binding affinity (RU) does the source give for KRTNGK [6mer-1-953] here?
Its Binding affinity (RU) is 26 RU.

How did the Binding affinity (RU) turn out when RREDFR [6mer-1-968] was run?
Its Binding affinity (RU) is 39 RU.

KRCPDR [6mer-1-982] was tested. Which Binding affinity (RU) did it give?
Its Binding affinity (RU) is 35 RU.

For RKASIK [6mer-1-975], which Binding affinity (RU) is on record?
Its Binding affinity (RU) is 22 RU.

With RKECFK [6mer-1-955] as the binder, how does the Binding affinity (RU) read?
The Binding affinity (RU) was 23 RU.

Which Binding affinity (RU) does the source give for KKAKGR [6mer-1-954] here?
Its Binding affinity (RU) is 41 RU.

Which Binding affinity (RU) does the source give for RRCCAR [6mer-1-970] here?
The Binding affinity (RU) was 38 RU.

With KKCPFR [6mer-1-960] as the binder, how does the Binding affinity (RU) read?
The Binding affinity (RU) was 34 RU.

How did the Binding affinity (RU) turn out when RKEMIK [6mer-1-976] was run?
The Binding affinity (RU) was 40 RU.

Which Binding affinity (RU) does the source give for RRHTHK [6mer-1-972] here?
The Binding affinity (RU) was 43 RU.

RKIEMK [6mer-1-971] was tested. Which Binding affinity (RU) did it give?
Its Binding affinity (RU) is 32 RU.

RRTWAR [6mer-1-961] was tested. Which Binding affinity (RU) did it give?
Its Binding affinity (RU) is 122 RU.

For KRKSNK [6mer-1-956], which Binding affinity (RU) is on record?
Its Binding affinity (RU) is 34 RU.
